Measured values from patent publication US7807153 (Genentech, dated 2010).

Molecular target: T1, DR4 expressed in transfected CHO cells (UniProt O00220 24-468, limits assumed)
T1 construct: whole, on cells; also called DR4-transfected CHO cells; DR4-transfected cells
Experiment: immunohistochemistry on sections of transfected CHO cells
Method: CHO cells were transfected with vector alone or vector containing the gene for Apo-2 or DR4. The transfected cells were removed from culture plates, pelleted, and washed twice with PBS. The pellets were then resuspended in O.C.T. (Fisher), flash frozen in isopentain and LN_2, and later sectioned using standard protocols. Staining of the sectioned cells was performed using a Vectastain Elite ABC kit. […] The secondary antibody employed was either a biotinylated anti-c-myc 9E10 antibody or anti-Penta His antibody (Qiagen) followed by biotinylated anti-mouse IgG.

B1: single chain antibody (scFv) fragment 16E2 (scFv)
scFv: EVQLVQSGGGVERPGGSLRLSCAASGFTFDDYGMSWVRQAPGKGLEWVSGINWNGGSTGYADSVKGRVTISRDNAKNSLYLQMNSLRAEDTAVYYCAKILGAGRGWYFDLWGKGTTVTVSSGGGGSGGGGSGGGGSSELTQDPAVSVALGQTVRITCQGDSLRSYYASWYQQKPGQAPVLVIYGKNNRPSGIPDRFSGSSSGNTASLTITGAQAEDEADYYCNSRDSSGNHVVFGGGTKLTVLGAAAHHHHHHGAAEQKLISEEDLNGAA
notes: Purified by IMAC from E. coli; also called 16E2 antibody; anti-Apo-2 antibody 16E2
binding result: no binding
